Test results: PMC12578939

Target: microtubules polymerised from bovine brain tubulin (bovine) (UniProt Q6B856)
Assay: TIRF microscopy of binding to immobilised microtubules

Substance: augmin octamer lacking the N-terminal MTBR of Haus8 (residues 1-154) (from UniProt Q0IHJ3;Q6DCY9) (complex)
- reduction in MT binding against wildtype augmin: 50%
